# Experimental data published in article PMC8495455, “Discovery of a transdermally deliverable pentapeptide for activating AdipoR1 to promote hair growth” (EMBO Molecular Medicine, 2021).
# Several values for one entry are separate records, joined by “and”; a condition that tells them apart may be missing. Identical values can stand only once.
# Legend:
# [1] = test system: C57BL/6 (WT) mice; assay: Mouse hair cycle modulation, hair cycle score, WT mice; type: in vivo; settings: topical
# Excerpt: (§1) First, we topically applied P5 and minoxidil as a positive control (Messenger & Rundegren, [2004]) on wildtype (WT) mouse. […] Overall, the hair cycle score was higher in the P5‐treated mice than vehicle‐treated mice (Fig 4B). […] Collectively, P5 induces anagen hair cycle in vivo.
# (§2) For the hair cycle modulation experiment, Adipoq ^−/− (stock #008195; JAX) (Ma et al, [2002]), Adipor1 ^−/− (Yamauchi et al, [2007]; Okada‐Iwabu et al, [2013]), or C57BL/6 (KOATECH) female mice was used (Müller‐Röver et al, [2001]). They were housed (up to four animals per cage; 23 ± 2°C, 8:00–20:00, 12 h/12 h light/dark cycle). Mice were fed a standard chow diet and provided food and water ad libitum. Mice were randomly allocated and shaved dorsally at 7.5 weeks of age. Only mice in telogen were included for the further experiments (Müller‐Röver et al, [2001]). From 8 weeks of age, the shaved dorsal area was treated with vehicle control (ethanol and polyethylene glycol, 30% and 70% v/v), P5 (0.1 mM), or minoxidil (3%) every day. The mouse hair growth score (a value from 0 to 100 based on the skin pigmentation and hair shaft density) was monitored and documented at designated days with the experimenters being blind to the conditions, following a previous study (Chai et al, [2019]). A higher score corresponds to a transition from telogen to anagen. On day 35, we obtained dorsal cutaneous tissue for histological analysis: anagen induction scores (calculated using an assigned arbitrary score; telogen = 1, anagen I–VI = 2–7) (Müller‐Röver et al, [2001]).
# [2] = test system: C57BL/6 (WT) mice; assay: Mouse hair cycle modulation, histology and anagen induction score, WT mice; type: in vivo
# Excerpt: as §1
# (§3) Paraffin‐embedded mouse cutaneous back tissue was sectioned (4 μm thickness) and stained with hematoxylin and eosin. For IF staining, human ORS cells cultured in FiTC‐P5, sectioned paraffin‐embedded human HFs (7 μm thickness), and sectioned paraffin‐embedded mouse cutaneous dorsal tissue or human skin tissue (5 μm thickness) were incubated at 4°C overnight with the following primary antibodies diluted in the diluent reagent (Invitrogen): phospho‐AMPK (#2535, 1:100; Cell Signaling), Ki‐67 (#M7240, 1:200; Dako), versican (#ab177480, 1:200; Abcam), or AdipoR1 antibody (#ab126611, 1:200; Abcam). After three washes with PBS, the slides were incubated with the secondary Alexa Fluor 488‐labeled anti‐mouse or rabbit IgG antibody (#ab150077, #ab150113, 1:200; Invitrogen), or Alexa Fluor 594‐labeled anti‐rabbit IgG antibody (#a11012, 1:200; Invitrogen) at 25°C for 1 h. Nuclei were counterstained with 4′,6‐diamidino‐2‐phenylindole (DAPI; #D1306, 1:1,000; Invitrogen). Microscopic observations were performed with a Nikon Eclipse Ci‐L microscope (Nikon). IF intensity was observed and recorded with a Nikon Eclipse Ni‐E fluorescence microscope (Nikon).
# as §2
# [3] = test system: AMPK phosphorylation in ORS cells; assay: Western blot p-AMPK, ORS cells; type: cell-based, human; settings: P5 0 - 50 μM, APN 2.5 μg/ml
# Excerpt: (§4) Following the confirmation of the molecular interaction between AdipoR1 and P5, we evaluated the activation of the intracellular signaling pathway by P5. We investigated whether APN treatment on ORS and DP cells could activate AMPK or ERK signaling pathways, which are previously known to be downstream effectors of AdipoR1 (Mao et al, [2006]; Deepa & Dong, [2009]; Shibata et al, [2012]). […] Next, for determination of whether both P5 and APN mediates the phosphorylation of AMPK through AdipoR1 in ORS and DP cells, the cells were transfected with AdipoR1 siRNA (Appendix Fig S1). […] Collectively, P5 activates AMPK signaling pathway through AdipoR1 in ORS and DP cells in vitro.
# (§5) Human ORS and DP cells or skin tissue were lysed (RIPA lysis buffer; #20‐188; Merck Millipore). The obtained protein was then separated by 8% SDS–PAGE and transferred to a polyvinylidene fluoride membrane (Amersham). The protein transferred membranes were incubated overnight with the specific antibodies. […] Antibody‐antigen complexes detected by enhanced chemiluminescent substrate (Thermo Fisher) were captured and quantified by Amersham imager 680 systems (GE Healthcare).
# [4] = test system: AMPK phosphorylation in DP cells; assay: Western blot p-AMPK, DP cells; type: cell-based, human; settings: P5 0 - 50 μM, APN 2.5 μg/ml
# Excerpt: as §4, §5
# [5] = test system: ERK phosphorylation in ORS cells; assay: Western blot p-ERK1/2, ORS cells; type: cell-based, human
# Excerpt: as §4, §5
# [6] = test system: ERK phosphorylation in DP cells; assay: Western blot p-ERK1/2, DP cells; type: cell-based, human
# Excerpt: as §4, §5
# [7] = test system: AMPK phosphorylation through AdipoR1 in ORS cells; assay: Western blot p-AMPK in AdipoR1 siRNA-transfected ORS cells; type: cell-based, human
# Excerpt: as §4
# (§6) All transfections were performed using Lipofectamine 2000 following the manufacturer’s instructions (#11668019; Thermo Fisher). Human DP and ORS cells were cultured without antibiotics until reaching 50% confluency. AdipoR1 or scrambled siRNA (Bioneer) was used. The culture medium was changed 6 h after transfection, and the cells were incubated for another 24 h before subsequent analyses.
# (§7) Human ORS and DP cells or skin tissue were lysed (RIPA lysis buffer; #20‐188; Merck Millipore). […] Antibody‐antigen complexes detected by enhanced chemiluminescent substrate (Thermo Fisher) were captured and quantified by Amersham imager 680 systems (GE Healthcare).
# [8] = test system: AMPK phosphorylation through AdipoR1 in DP cells; assay: Western blot p-AMPK in AdipoR1 siRNA-transfected DP cells; type: cell-based, human
# Excerpt: as §4, §6, §7
# [9] = test system: matrix cells of human HF bulbs; assay: IF staining Ki-67 of ex vivo cultured HF bulb; type: cell-based; settings: APN 10μg/ml, ex vivo cultured HF bulb; individual HFs, n = 8
# Excerpt: We next investigated whether P5 can reproduce the effects of APN on hair growth promotion ex vivo (Won et al, [2012]) using ex vivo human HF organ culture model. […] The Ki‐67‐positive cell portion of the matrix area in the P5‐treated HFs was higher than that in the vehicle‐treated group (Fig 3E).
# as §3
# [10] = test system: human scalp HFs; settings: ref Won et al, [2012]; cited from earlier work
# Excerpt: However, it is not well understood about the underlying action mechanism of APN on hair growth promotion and how to utilize this endogenous protein as clinically applicable drug forms (Otvos, [2019]).
Molecule,Gross morphology of dorsum ([1]; day 14),Gross morphology of dorsum ([1]; day 35),Histological examination of HFs ([2]; H&E),Anagen induction scores vs vehicle ([2]; One-way ANOVA with Tukey's test),"Phosphorylation of AMPK, ORS cells [3]","Phosphorylation of AMPK, DP cells [4]","Phosphorylation of ERK, ORS cells [5]","Phosphorylation of ERK, DP cells [6]","p-AMPK intensity after AdipoR1 siRNA transfection, ORS cells [7]","p-AMPK intensity after AdipoR1 siRNA transfection, DP cells [8]",Numbers of Ki-67-positive cells normalized to DAPI-stained cells [9],Hair growth ex vivo [10]
"Nc1cc(N2CCCCC2)nc(N)[n+]1[O-] [minoxidil, reference compound]",obvious pigmentation and hair,manifested a black hair coat,anagen HFs were noticeable,significantly higher,,,,,,,,
"APN: adiponectin protein, positive control (protein, UniProt Q15848 19-244, looked up) Adiponectin: ETTTQGPGVLLPLPKGACTGWMAGIPGHPGHNGAPGRDGRDGTPGEKGEKGDPGLIGPKGDIGETGVPGAEGPRGFPGIQGRKGEPGEGAYVYRSAFSVGLETYVTIPNMPIRFTKIFYNQQNHYDGSTGKFHCNIPGLYYFAYHITVYMKDVKVSLFKKDKAMLFTYDQYQENNVDQASGSVLLHLEVGDQVWLQVYGEGERNGLYADNDNDSTFTGFLLYHDTN",,,,,phosphorylation of AMPK was observed,phosphorylation of AMPK was observed,no effect on the phosphorylation of ERK,no effect on the phosphorylation of ERK,intensity was reduced,intensity was reduced,0.29 and 0.31 and 0.23 and 0.25 and 0.22 and 0.21 and 0.35 and 0.28,promotes hair growth ex vivo effectively
